# In patent US20070053894:
# Tested on: Soluble human recombinant p97 (melanotransferrin)
# Sequence (chain, as listed by the source): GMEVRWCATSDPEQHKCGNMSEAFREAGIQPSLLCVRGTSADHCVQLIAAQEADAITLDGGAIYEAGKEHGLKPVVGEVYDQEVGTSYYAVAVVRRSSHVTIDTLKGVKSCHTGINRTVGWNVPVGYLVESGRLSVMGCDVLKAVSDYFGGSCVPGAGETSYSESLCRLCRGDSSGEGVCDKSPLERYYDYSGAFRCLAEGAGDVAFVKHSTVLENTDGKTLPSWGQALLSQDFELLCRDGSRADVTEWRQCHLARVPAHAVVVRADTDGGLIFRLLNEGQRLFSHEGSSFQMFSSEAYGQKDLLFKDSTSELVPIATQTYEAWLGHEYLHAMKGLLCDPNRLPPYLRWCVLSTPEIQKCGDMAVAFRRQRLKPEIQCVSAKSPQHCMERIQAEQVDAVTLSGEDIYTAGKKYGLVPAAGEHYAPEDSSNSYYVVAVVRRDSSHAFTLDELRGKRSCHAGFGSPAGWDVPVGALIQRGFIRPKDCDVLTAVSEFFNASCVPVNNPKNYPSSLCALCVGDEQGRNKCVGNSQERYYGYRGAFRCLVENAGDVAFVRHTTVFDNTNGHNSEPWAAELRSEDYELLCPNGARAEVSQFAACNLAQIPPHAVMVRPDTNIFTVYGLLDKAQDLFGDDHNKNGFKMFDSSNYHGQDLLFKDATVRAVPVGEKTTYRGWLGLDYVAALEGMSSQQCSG
substance,measurement,value
pro-urokinase plasminogen activator (pro-uPA),"VLK-pNA hydrolysis (plasminogen activation by pro-uPA) with 70 nM p97 and 30 nM plasminogen, after 180 min",the VLK-pNA hydrolysis is 4-fold higher after 180 min
same,"VLK-pNA hydrolysis by 90 nM pro-uPA with 70 nM p97, without plasminogen",goes from less than 50 AU/min in the absence of p97 to more than 450 AU/min when p97 is added
same,half-maximal stimulation of plasminogen cleavage by pro-uPA (initial rates of plasmin activity),half-maximal stimulation occurring at 25±6 nM
same,increase of catalytic efficiency of plasminogen activation by pro-uPA with 250 nM p97,increasing the catalytic efficiency by a factor of 2.4-fold
